Laboratory results taken from the nanobody polyreactivity screen of Harvey et al. (2022).

Assay: yeast display, Sf9 membrane polyspecificity reagent, FACS + sequencing; frameworks hold sequencing errors
Procedure, shortened: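 Polyreactivity labels are assigned by the sorting gate from which each nanobody was recovered. The gates were low and high (top ~1%), set on anti-HA fluorescence for expression and streptavidin fluorescence for reagent binding. Before sorting, galactose-induced (36–48 hours) yeast display cells were stained for 1 hour at 4 °C with 10% biotinylated, detergent-solubilized Sf9 membrane reagent.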

Sequence | polyreactivity (PSR sort gate)
QVQLVESGGGLVQAGGSLRLSCAASGFNFDGNALGWYRPAPGKERELVAAIRSGGRTNYADSVKGRFTISRDNAKNTVYLQMNSLKPEDTAVYYCAARSIYPYYYRRDNRYYYWGQGTQVTVSS | high polyreactivity
QVQLVESGGGLVQAGGSLRLSCAASGRTFDIYAMGWYRQAPGKERELVADITWSDGTTYYADSVKRRFTISRDNAKNTVYLQMTSLTPEDTAVYYCNAYTVYAYDYWGQGTQVTVSS | low polyreactivity
QVQLVDSGGGLVQAGGSLRLSCAASGRIFRPYAMGWYREAPRKERELVAAISFSGGSTYYADSVKGRFTISRDNAKNTVYLQMNSVKPEDTAVYYCNAVFINKYGKYGDWGQGTQVTVSS | high polyreactivity
QVQLVESGGGLVQAGGSLRLSCAASGSTFTNYAMGRYRQSAGKERELLAAINSGGSTHYADSVKGRFTISRDNANNTVYLQMYSLKPEDTAVYYCDADPSALVYYWRWLGYDYWGQGTQVTVSS | high polyreactivity
QVQLVESGGGLVQAGGSLRLSCAASGITFVQYAMGWYRQAPGKERELVAAIRRGGSTSYADSVKGRFTISRDNAKNTVYLQMNSLKPEDTAVYYCARRYVWPITPLDVEYWGQGTQVTVSS | low polyreactivity
QVQLVESGGGLVQAGGSLRLSCAASGSIFVGFARGWYRQAPGKERELVAAISWSGDSTYYADSVKGRVTISRDNAKKTVYLQLNSLKPEDTAVYYCAVDYAEIGPRREVEYDYWGQGTQVTVSS | low polyreactivity
QVQLVESGAGLVQAGGSLRLSCAASGRIFPDNTMGWYRQAHGKERELVAVITYSGGSTYYADSVKGRFTISRDNAKNTVYLQMNSLKPEDTAVYYCAADFGFQLKMYYWGQGTQVTVSS | low polyreactivity
QVQLVESGGRLVQAGGSLRLSCAASGFIFDDYDIGWYTQAPGKERELVDAISWSGGSTYYEDSLKGRFTISRDNAKNTVYLQMNSLKPEDTAVYYCNADYYRSRYDYWGQGTQVTVSS | high polyreactivity
QVQLVESGGGLVQAGGSLRLSCAASGRTFAAYAMGWYRKAPGKEREFVADITYSGGSTTYADSVKGRFTISRDNAKNTVYLQMNSLKPEDTAVYDCIKLAYTRGWRGFVWYDYWGQGTQVTVSS | low polyreactivity
QVQLVESGGGLVQAGGSLRLSCAASGRTFPYNVMGWYRQAPRKERELVAAITYDGGNTYYADSVKGRFTISRDNAKNTVYLQMNSLKPEDTAVYYCARPLTYYDEFDSWGQGTQVTVSS | low polyreactivity
QVQLVESGGGLVQAGGILRLSCAASGSTFVTYTMGWYRQAPGKERELVATITTSGGSTYYADSVKGRFTISRDNAKNTVYLQMNSLKPEDTAVYYCAADWDPGYYVQYGYDYWGQGTQVTVSS | low polyreactivity
QVQLVESGGGLVQAGGSLRLSCAASGFTFTGNAMGWYRQAPGKERELVAAITSGTSTYYADSVKGRFTISRDNAKNTVYLQMNSLKPEDTAVYYCAKEYPLDGRGSDYCGQGTQVTVSS | low polyreactivity
QVQLVESGGGLVQAGGSLRLSCAASGRTFYANAMGWYRQAPGKERELVAAISSRSGTTHYAHSVKGRFTISRDNAKNTVYLQMNSLKPEDTAVYYCAADSCDLYVWGYDHWGQGTQVTVSS | low polyreactivity
QVQLVESGGGLVQAGGSLRLSCAASGSIFYRNAMGWSRQAPGKEREFVAAITLRGGSTYYADSVKGRFTISRDYAKNTVYLQMNSLKPEDTAVYYCNAGVGLTYVHDGDYWGQGTQVTVSS | low polyreactivity
QVQLVESGGGLVQAGGSLRLSCAASGYTFRYNALGWYRQAPGKERELVAAISYSRGSTYYADSVKGRFTISRDYAKYTVYLLMNSLKPEDTAVYYCAAQYLFSGHDYWGQGTQVTVSS | low polyreactivity
QVQLVESGGGLVQAGGSLRLSCAASGSIFRFYAMGWYRQAPGKERELVAAITRRGGRTYYADSVKGRFTISRDNAKNTVYLQMNSLIPEDTAVYYCAAASKKPPSFEYNYWGQGTQLTVSS | high polyreactivity
QVQLVESGGGIVQAGGSLRLSCAASGSTYYGYTMGWYRQAPGKERELVAVITSGGSTYYADSVKGRFTISRDNAKNTVYLQMNILKPEDRAVYYCAKRYGYPAYGRPWRIGRTYDYWGQGTQVTVSS | low polyreactivity
QVQLVESGGGLVQAGGSLRLSCAASGSTFQTYVMGWYRQAPGKERELVAAITWSGGSTYYADSVKGRFTISRDNAKNTVYLQMNSLKPEDTAVYYCAARFPWRGGVKYSYYFQHDYWGQGTQVTVSS | high polyreactivity
QVLLVESGGGLVQAGGSLRLSCAASGSIFGQYTMGWYRQAPGKERELVAAINSSGDSTFYADSVKGRFTISRDNAKNTVYLQMNSLKPEDTAVYYCAADPYRYYFRAYGWHREGYYWGQGTQVTVSS | low polyreactivity
QVQLVESGGGLVQAGGSLRLSCAASGSIFKYYAMAWYRQSPGNERELVAAISSGGRTYYADSVKGRFTISRDNAKNTVYLQMNSLKPEDTAVYYCNRVGTYHSYDYWGQGTQVTVSS | high polyreactivity
QVQLVESGGGLVQAGGSLRLSCAASGFTFGWYDMGWYRKATGKERELVASISWSGSSTYYADSVKGRFTISRDNAKNTVYLQMNSLKPEDTAVYYCATPYWRRYDYWGQGTQVTVSS | high polyreactivity
QVQLVESGGGLVQAGGSLRLSCAASGSTISGYAMGWYRQAPGKERELVAAISSGGSTYYADSVKGRFTISRDNAKNTVYLQLNSLKPEDTAVFYCNVARSRYRYRYDYWGQGTQVTVSS | high polyreactivity

Sequence | polyreactivity (PSR sort gate)
QVQLVESGGGLVQAGGSLRLICAASGFILKPNAMGWYRQAPGKERELVAAISWSSGSTYYADSVKGRFTISRDNAKNTVYLQMNSLKPEDTAVYYCAADYFVYPVDWYDYWGQGTQVTVSS | low polyreactivity
QVQLVESGGGLVQAGGSLRLSCAASGRIFGSYAMGWYRPAPGKERELVAGIRSVGSTNYADSVKGRFTISRDNAKNTVYLQMNSLKPEDTAVYYCAARLWHLSYAGQGGDYWGQGTQVTVSS | low polyreactivity
QVQLQGSGGGLVQAGGSLRLSCAASGNIFDADIMGWYRQAPGKESELVASITDGGSTNYADSVKGRFTISRDNAKNTVYLQMNSLKQEDTAVYYCAAIAYPDIPTYFDYDSACFYWSQGTQVTVSS | high polyreactivity
QVQLVESGGGLVQAGGSLRVSCAASGSIFIVYAMGWYRQAPGKDRELVATISSGGSTNYAVSVKGRFTISRDNAKNTVYVQMNTLKPEATAVYYCAAESYWGSGLVPGYDYWGQGTQGTVSS | low polyreactivity
QVQLVESGGGLVQAGGSLRLSCAASGSTFPVNTMGWYRQAPGKERELVAAISSDDNTNYADSVKGRFTISRDNAKNTVYLQMNSLKPEDTAVYYCAVKGHPAYVEVPPRYAWEFDYWGQGTQVTVSS | low polyreactivity
QVQLVESGGGLVQAGGSLRLSCAPSGRIFTPYAMGWYRQAPGKERELVAVIRDGSTYYADSVKGRFTISRDNAKNTVYLKMNSLKPEDTAVYYCRYDIWVWWSGAYDYWGQGTQVNVSS | low polyreactivity
QLQLVESGGGLVQAGGSLRLSCAASGSTFGFYAMGWYRQAPGKARELVAAISSSGSTYYADSVKGRFTISRDNAKITVYLQMNSLKPEDTAVYYCAAQPGYYDYDYWGQGTQVTVSS | low polyreactivity
QVQLVESGGGLVKAGGSLRLSCAASGGIFYRNSMGWYRQAPGKERELVAAISWRGGSTYYADSVKGRFTISRDNAKNTVYLQMNSLKPEDTAVYYCAARSVATYRYDYWGQGTQVTVSS | high polyreactivity
QVQLVESGGGLVQAGGSLRLSCAASGSINNRNAMGWYIQAPGKERELVAAITRRGGSTYYADSVKGRFTISRDNAKNTVYLQMNSLKPEETAVYYFNAVKGLSSWSYEYWGQGSQVTVSS | high polyreactivity
QVQLEESGGGLLKEGGSLRLSCAASGRLFYGYTIGRSRQAPGKERELVAAISRNGGSTYYADSVKGRFTISRDNAKNTVYFHMNSLKTEDSAVYYCNAVFSRGYVIKPYDYWGQGTQVTVSS | high polyreactivity
QVQLVESVGRLVQAGGSLRLSCAASGSTITPNAMGWYRQAPGKERELVAAINWSGTSTYYADSVKGRFTISRDNEKNTVYLQMNSLKQEDTAVYSCAASYPDVDYDYWGHGTQVTVSS | high polyreactivity
QVQLVESGGGLVQAGGSLRISCAASGFTFSSYAMGRSRPAPGKERELVAGITIDGNTYYADSVKGRFTISRDNAKNTVYLQMNSLKPEDTAVYYCAAVAYYYGYDYWGQGTQVTVSS | low polyreactivity
QVQLVESGGGLVHAGGSLRLSCAASGFTFWYYTMGWYRQAPGKERELVAAITASGGNTYYADSVKGRFTISRDNAKNTVYLQMYSLKPEDTAVYYSNAVSLKFTRKYDYWGQGPQVTVSS | high polyreactivity
QVQLVESGGGLVQAGGSLRLSCAASGSIFVDYAMGWYRPAPGNERELVADITSDGGSTDYADSVKGRFTISRDYAKNTVYLQMHSLNPEDTAVYDCAALKTQVLGVVEYGYDYWGQGTQVTVSS | high polyreactivity
QVQLVESGGGLVQAGGSLRLSCAASGFTFIPYAMGWYRQAPGKERELVAAISRKGGRTYYADSVKGRFTISRDNAKNTVYLQMNSLKPEDTAVYYCAVSQYRGIYRKYDYWGQGTQVTVSS | high polyreactivity
QVQLVESGGGLVQAGGSLRLTCAASGSIYKYKAMGWYRQAPGKERELVAAIRWSGVGTRYADSVKGRFTISRDNAKNSLYLQMNSLKREDTAVYYCAADVSKYHDGHEYDYWGQGTQVTVSS | low polyreactivity
QVELVESGGGLVQAGGSLRLSCAASGRTFTPYAMGWYRQAPGKEREFVAAISIVGRTKYADSVKGRFTISRDNAKNTVYLQMNSLKPEDTAVYYCNAQDSRDRKFYWGYTRGHWGQGTQVTVSS | low polyreactivity
QVQLVESGGGLVQAGGSLRLSCAASGSTLGGSVMGWSRQAPGKERELVASITYSGGSTRYADSVKGRFTISRDNAKNTVYLQMNSLKPEDTAVYYCAAGAQRTYYTYSFRRVGYDYDYWGQGTQVTVSS | low polyreactivity
QVQLVESGGGLVQAGGSLRLSCAASGITFVRYAMGWYRQAPGKEREFVARISRSGASTYYADSVKGRFTISRDNAKNTVYLQMNSLKPEDTAVYYCNKVYISREDYWGQGTQVTVSS | high polyreactivity
QVQLEESGGGLVQAGGSLRLICAASGLTFYSYAMGWYRQAPGKERELVATIRWSGGSTYYADSVKGRFTISRDNANNTVYLQMNSLKPEDTAVYYCNKRRYPVGSLFDYWGQGTQVTVSS | low polyreactivity
QVQLVESGGGLVQAGGSLRLSCAASGSTFVVYAMGWYRQAPGKERELVAAITGSGGSTYYADSVKGRFTISRDNAKNTVYLQMNSLKPEDTAVYYCAADLYFYVISWGYGFYYWGQGTQVTVSS | low polyreactivity
